Assay results taken from patent US20240083984A1, “DOSING AND SCHEDULING REGIMEN FOR BROADLY NEUTRALIZING ANTIBODIES” (priority 2022, published 2024).

Key:
[1] = Phase 1b study GS-US-536-5816: pharmacokinetics of TAB, ZAB and LEN; conditions: single dose; through Week 26
[2] = Phase 1b study GS-US-536-5816: safety (adverse events)
Description: Participants were monitored clinically with plasma HIV-1 RNA every four weeks until the primary endpoint at Week 26. The primary endpoint was safety; secondary endpoints included virologic outcomes by FDA Snapshot analysis.

[3] = in vivo, cited from earlier work
HIV = experiment: PK-PD viral dynamic model and simulations of viral rebound during ATI; parameters: species or system human; conditions: in vivo, PK-PD model
Description: Population PK and PK-PD models were developed using a nonlinear mixed-effect modeling approach based on serum bNAb concentration and/or viral dynamic data from 6 efficacy studies in people with HIV, and 3 PK studies of 3BNC117/TAB (GS-5423) and/or 10-1074/ZAB (GS-2872) (Table 4).
bNAb concentrations were measured by ELISA assays, except for study NCT03526848 (Gaebler, et al. Nature. 2022; 606:368-374). For this study, concentrations measured by TZM-bl assay (Sarzotti-Kelsoe, et al. J Immunol Methods. 2014; 409:131-146) were transformed to ELISA data using a log-linear correlation model calibrated based on data from study NCT02825797 (Mendoza, et al. Nature. 2018; 561:479-484; Bar-On Y, et al. Nat Med. 2018; 24:1701-1707) where PK was measured using both methods. The PK data of the bNAbs were modeled by 2-compartment linear PK models. Covariates (demographics, disease status, combination treatment) were tested using stepwise forward addition (α=0.01) and backward elimination (α=0.001) methods. The PK-PD model describes viral replication using a logistic growth function and viral elimination using first-order kinetics, with a nonlinear saturable (Emax) model to describe the relationship between bNAb concentrations and viral elimination rates. […]

[4] = Population PK modeling and simulation of GS-5423 and GS-2872, flat vs weight-based dosing every 6 months; parameters: species or system human
Description: TAB and ZAB serum concentrations were measured using validated […]-electrochemiluminescence immunoassays. A two-compartment population PK model was developed to describe the PK data of GS-5423 and GS-2872 following IV and SC administration in HIV− and HIV+ participants. See, Joel S. Owen, Jill Fiedler-Kelly, “Introduction to Population Pharmacokinetic/Pharmacodynamic Analysis with Nonlinear Mixed Effects Models”, Wiley; 1st edition, 2014 (ISBN: 9780470582299). PopPK models of TAB and ZAB were developed using nonlinear mixed-effect modeling. Covariate analyses were performed to identify significant covariates, including body weight, effects of demographics, baseline characteristics, combination regimen, and disease status, on the PK parameters of GS-5423 and GS-2872. The population PK models were simulated to predict the PK profiles of GS-5423 and GS-2872 following IV administration of 30 or 10 mg/kg body weight normalized dosing or equivalent flat doses every 6 months. Model simulations were performed to predict the concentrations of TAB and ZAB following flat vs weight-based dosing.

## CC(C)(C#Cc1ccc(-c2ccc(Cl)c3c(NS(C)(=O)=O)nn(CC(F)(F)F)c23)c([C@H](Cc2cc(F)cc(F)c2)NC(=O)Cn2nc(C(F)(F)F)c3c2C(F)(F)[C@@H]2C[C@H]32)n1)S(C)(=O)=O [lenacapavir]
[1]
  therapeutic concentrations: maintained through Week 26
[2]; 17/20 patients, LEN 927 mg SC
  injection site reactions related to subcutaneous administration: 85%
[2]; injection site cellulitis and injection site erythema at site of LEN injection
  participants with grade 3 AEs: Two participants

## zinlirvimab: anti-HIV gp120 V3 glycan-binding bNAb; 10-1074 with M428L and N434S (LS) Fc substitutions; heavy and light chains SEQ ID NOs: 433 and 434
[1]
  therapeutic concentrations: maintained through Week 26
[2]; up to 30 mg/kg alone or in combination, GS-US-536-5816 and previous studies in HIV+ participants
  tolerability: well-tolerated
[3]; ip
  non-solicited AEs within 4 weeks of IP administration: 33.7%
[3]
  Grade 3 AE: decrease in hemoglobin: 1%
  Grade 3 AE: elevated blood pressure: 4%
  Grade 3 AE: increased left-sided weakness: 1%
  Grade 3 AE: nephrolithiasis: 1%
  Grade 3 AE: proteinuria: 1%
  most common AE: localized musculoskeletal pain: 8%
  most common AE: symptoms of gastroenteritis: 8%
  most common AE: upper respiratory infections: 25%
  non-solicited AEs of Grade 3 severity: 9.3%
  non-solicited AEs of grade 2 severity: 11.6%
  non-solicited AEs reported (number): 86
  solicited AE: erythema/skin discoloration at the administration site: 8%
  solicited AE: feverishness: 4%
  solicited AE: headache: 4%
  solicited AE: induration at the administration site: 2%
  solicited AE: malaise/fatigue: 3%
  solicited AE: myalgia: 1%
  solicited AE: pain at the administration site: 4%
  solicited AEs reported (number): 20
HIV
  estimated mean serum concentration corresponding to 50% maximum drug effect (EC50): 32.2 µg/mL
[4]; PopPK covariate analysis
  clearance in viremic PWH compared with those suppressed at baseline: significant increase in the clearance
[4]; PopPK covariate analysis in PWH
  effect of increased body weight on PK parameters: increased volume of distribution and clearance
